The record followed here is patent publication US20220251219A1 (published 2022).

The chains are these.
B1: anti-Sortilin antibody S-22 (antibody, V domains shown)
VH: QVQLVQSGAEVKKPGSSVKVSCKASGGTFSSYAISWVRQAPGQGLEWMGGIIPIFGTASYAQKFQGRVTITADESTSTAYMELSSLRSEDTAVYYCARQGRKTGYYYYYGMDVWGQGTTVTVSS
VL: DIQMTQSPSTLSASVGDRVTITCRASQSISSWLAWYQQKPGKAPKLLIYKASSLESGVPSRFSGSGSGTEFTLTISSLQPDDFATYYCQQADGHITFGGGTKVEIK
notes: IgG
B2: anti-Sortilin antibody S-21 (antibody, V domains shown)
VH: B1 VH with G50S, S59N, Q99E, G100R, K102Y, T103D
VL: DIQMTQSPSSLSASVGDRVTITCRASQSISSYLNWYQQKPGKAPKLLIYAASSLQSGVPSRFSGSGSGTDFTLTISSLQPEDFATYYCQQKASLPFTFGGGTKVEIK
notes: IgG
B3: anti-Sortilin antibody S-26 (antibody, V domains shown)
VH: EVQLVESGGGLVKPGGSLRLSCAASGFTFSSYSMNWVRQAPGKGLEWVSSISSSSSYIYYADSVKGRFTISRDNAKNSLYLQMNSLRAEDTAVYYCARDRLGRGYKWNWFDPWGQGTLVTVSS
VL: DIQMTQSPSSVSASVGDRVTITCRASQGIDSWLAWYQQKPGKAPKLLIYAASSLQSGVPSRFSGSGSGTDFTLTISSLQPEDFATYYCQQGNSLPPITFGGGTKVEIK
notes: IgG
B4: anti-Sortilin antibody S-19 (antibody, V domains shown)
VH: QVQLVQSGAEVKKPGSSVKVSCKASGGTFSSYAISWVRQAPGQGLEWMGGIIPIFGTASYAQKFQGRVTITADESTSTAYMELSSLRSEDTAVYYCARESRIPGSGYYYYYGMDVWGQGTTVTVSS
VL: B2 VL with A50S, K91T, A92D, S93G, L94K, F96P
notes: IgG
B5: anti-Sortilin antibody S-28 (antibody, V domains shown)
VH: EVQLVESGGGLVKPGGSLRLSCAASGFTFSSYSMNWVRQAPGKGLEWVSSISSSSNYIYYADSVKGRFTISRDNAKNSLYLQMNSLRAEDTAVYYCARGGLDRWGSFDIWGQGTMVTVSS
VL: not shown
notes: IgG
B6: anti-Sortilin antibody S-29 (antibody, V domains shown)
VH: B5 VH
VL: not shown
notes: IgG
B7: anti-Sortilin antibody S-14 (antibody, V domains shown)
VH: QVQLVQSGAEVKKPGASVKVSCKASGYTFTSYYMSWVRQAPGQGLEWMGIINPSGGSTSYAQKFQGRVTMTRDTSTSTVYMELSSLRSEDTAVYYCARDPSGIAAAGPASRYYYGMDVWGQGTTVTVSS
VL: B2 VL with A50G, K91H, A92Y, S93V, L94G
notes: IgG
B8: anti-Sortilin antibody S-15 (antibody, V domains shown)
VH: B7 VH
VL: EIVMTQSPATLSVSPGERATLSCRASQSVSSNLAWYQQKPGQAPRLLIYGASTRATGIPARFSGSGSGTEFTLTISSLQSEDFAVYYCQQARLGPWTFGGGTKVEIK
notes: IgG
B9: anti-Sortilin antibody S-18 (antibody, V domains shown)
VH: QVQLVQSGAEVKKPGSSVKVSCKASGGTFSSYAISWVRQAPGQGLEWMGSIIPIFGTANYAQKFQGRVTITADESTSTAYMELSSLRSEDTAVYYCARDKHGRRGYYYYMDVWGKGTTVTVSS
VL: EIVLTQSPATLSLSPGERATLSCRASQSVSSYLAWYQQKPGQAPRLLIYDASNRATGIPARFSGSGSGTDFTLTISSLEPEDFAVYYCQQGANAPPRTFGGGTKVEIK
notes: IgG
B10: anti-Sortilin antibody S-55 (antibody, V domains shown)
VH: QVQLQESGPGLVKPSETLSLTCAVSGYSISSGYYWGWIRQPPGKGLEWIGSIYHSGSTYYNPSLKSRVTISVDTSKNQFSLKLSSVTAADTAVYYCARGRPELGWDKYFQHWGQGTLVTVSS
VL: DIQMTQSPSSVSASVGDRVTITCRASQGISRWLAWYQQKPGKAPKLLIYAASSLQSGVPSRFSGSGSGTDFTLTISSLQPEDFATYYCQQANALPTFGGGTKVEIK
B11: anti-Sortilin antibody S-22 (antibody, V domains shown)
VH: B1 VH
VL: B1 VL
B12: anti-Sortilin antibody S-21 (antibody, V domains shown)
VH: B1 VH with G50S, S59N, Q99E, G100R, K102Y, T103D
VL: B2 VL
B13: anti-Sortilin antibody S-2 (antibody, V domains shown)
VH: not shown
VL: B2 VL with K91S, A92D, S93V, L94S, F96I
B14: anti-Sortilin antibody S-19 (antibody, V domains shown)
VH: B4 VH
VL: B2 VL with A50S, K91T, A92D, S93G, L94K, F96P
B15: anti-Sortilin antibody S-51 (antibody, V domains shown)
VH: QVQLVESGGGVVQPGRSLRLSCAASGFTFSSYGMHWVRQAPGKGLEWVAVISYDGSNKYYADSVKGRFTISRDNSKNTLYLQMNSLRAEDTAVYYCAKGLEYYDSSRLYYPYYYYMDVWGKGTTVTVSS
VL: EIVLTQSPATLSLSPGERATLSCRASQSVSSYLAWYQQKPGQAPRLLIYDASKRATGIPARFSGSGSGTDFTLTISSLEPEDFAVYYCQQRSNYPITFGGGTKVEIK
B16: anti-Sortilin antibody S-29 (antibody, V domains shown)
VH: B5 VH
VL: not shown
B17: anti-Sortilin antibody S-28 (antibody, V domains shown)
VH: B5 VH
VL: not shown
B18: anti-Sortilin antibody S-15 (antibody, V domains shown)
VH: B7 VH
VL: B8 VL
B19: anti-Sortilin antibody S-61 (antibody, V domains shown)
VH: QVQLQESGPGLVKPSETLSLTCAVSGYSISSGYYWGWIRQPPGKGLEWIGSIYHSGSTYYNPSLKSRVTISVDTSKNQFSLKLSSVTAADTAVYYCARGSPRFYYGSGSYLDLFDIWGQGTMVTVSS
VL: B8 VL with Q90E, A91Y, R92L, L93N, G94Y, W96I
B20: anti-Sortilin antibody S-14 (antibody, V domains shown)
VH: B7 VH
VL: B2 VL with A50G, K91H, A92Y, S93V, L94G
B21: anti-Sortilin antibody S-18 (antibody, V domains shown)
VH: B9 VH
VL: B9 VL

Substitutions are numbered along the chain they refer to.

The target of one assay is T1, recombinant mouse Sortilin (mouse, UniProt Q6PHU5 74-825).
T1 construct: also called mSort
The experiment in a line: flow cytometry, 293 cells expressing recombinant mouse Sortilin, 10 ug/ml antibody. For orientation: In flow cytometry, cells or beads pass a laser one at a time.
Method: (§1) Cells were harvested, plated at 10⁵/ml in a 96 well plate, washed, and incubated in 100 μl PBS containing 10 μg/ml Mab and 2% FBS for 1 hour in ice. Cells were then washed twice and incubated in 100 μl PBS+2% FBS containing 5 μg/ml PE-conjugated anti-human secondary antibody for 30 minutes in ice. Cells were washed twice in cold PBS and data was acquired on a BD FACS Canto. Data analysis and calculation of MFI values was performed with FlowJo (TreeStar) software version 10.0.7.
Consider B1, for which the MFI is 23200 MFI.

As for B2, the MFI stood at 22900 MFI.

Consider B3, for which the MFI was 20900 MFI.

B4: the MFI amounted to 28200 MFI.

In the case of B5, the MFI worked out at 21600 MFI.

Take B6: the MFI amounted to 21800 MFI.

On to B7, for which the MFI is 16500 MFI.

As to B8, the MFI is 17600 MFI.

In the case of B9, the MFI was 21700 MFI.

For another assay, the target named is mouse Sortilin (mouse, UniProt Q6PHU5 74-825). The experiment in a line: cell-based or functional assay.
For the molecule B10, the “Percent reduction of Sortilin levels in N2A cells” value (from here on “Percent reduction … in N2A cells”) amounted to 67.7%.

Regarding B11, the “Percent reduction … in N2A cells” value was found to be 87.7%.

Regarding B12, the “Percent reduction … in N2A cells” value came out at 71.9%.

On to B13, for which the “Percent reduction … in N2A cells” value was 66%.

For B14, the “Percent reduction … in N2A cells” value amounted to 86.5%.

As to B15, the “Percent reduction … in N2A cells” value was determined as 80.7%.

In the case of B16, the “Percent reduction … in N2A cells” value was 53.8%.

For B17, the “Percent reduction … in N2A cells” value is 51.1%.

Regarding B18, the “Percent reduction … in N2A cells” value amounted to 76.1%.

As for B19, the “Percent reduction … in N2A cells” value turned out to be 62.7%.

Regarding B20, the “Percent reduction … in N2A cells” value is 58.5%.

Regarding B21, the “Percent reduction … in N2A cells” value amounted to 58%.

Another assay concerns the target human Sortilin (human, UniProt Q99523 78-830). Nature of the assay: cell-based or functional assay.
For the molecule B10, the “Percent reduction of Sortilin levels in U251 cells” value (“Percent reduction … in U251 cells” for short) amounted to 73%.

Regarding B11, the “Percent reduction … in U251 cells” value came to 92.7%.

On to B12, for which the “Percent reduction … in U251 cells” value is 78.7%.

Consider B13, for which the “Percent reduction … in U251 cells” value is 96.2%.

On to B14, for which the “Percent reduction … in U251 cells” value came out at 93.4%.

As for B15, the “Percent reduction … in U251 cells” value is 75.9%.

Turning to B16, the “Percent reduction … in U251 cells” value came out at 90.8%.

As for B17, the “Percent reduction … in U251 cells” value is 85%.

Take B18: the “Percent reduction … in U251 cells” value was determined as 87.8%.

With B19, the “Percent reduction … in U251 cells” value was determined as 70.3%.

For B20, the “Percent reduction … in U251 cells” value was 75.4%.

Turning to B21, the “Percent reduction … in U251 cells” value came to 85.7%.

In another assay the target is T2, recombinant human Sortilin (human, UniProt Q99523 78-830).
T2 construct: also called hSort; SORT1
Nature of the assay: flow cytometry, 293 cells expressing recombinant human Sortilin, 10 ug/ml antibody.
Method: as §1
As to B1, the MFI was found to be 8940 MFI.

B2: the MFI came to 9380 MFI.

Take B3: the MFI turned out to be 9020 MFI.

B4: the MFI was found to be 11700 MFI.

With B5, the MFI came to 8560 MFI.

As to B6, the MFI stood at 9600 MFI.

As to B7, the MFI came to 8010 MFI.

Regarding B8, the MFI came to 8740 MFI.

B9: the MFI came out at 9350 MFI.
